Experimental data reported in patent US20090291890A1 (published 2009).
Values joined by “and” are separate entries in the source; they are usually repeats but may differ in a detail not shown here. Equal entries are not always repeated.

Tests used:
[1] = molecular target: Gla swap FIX/S52A/S60A/Q286R/M298Q-FVIIa (human)
[2] = molecular target: T128N/P129A/V158D/E296V/M298Q-FVIIa (human)
[3] = molecular target: T128N/P129A/A175S/Q286R/M298Q/H373F-FVIIa (human)
[4] = molecular target: A122N/G124S/A175S/Q366V-FVIIa (human)
[5] = molecular target: T128N/P129A/T239I/Q286R/M298Q/H373F-FVIIa (human)
[6] = molecular target: S119N/L121S/A175S-FVIIa (human)
[7] = molecular target: Q286R/M298Q/Q366N-FVIIa (human)
[8] = molecular target: T128N/P129A/Q286R/M298Q/H373F-FVIIa (human)
[9] = molecular target: {Gla swap FIX/E40L}/Q286R/M298Q-FVIIa (human)
[10] = molecular target: T128N/P129A/A175S/Q366V-FVIIa (human)
[11] = molecular target: S52A/S60A/S222A/H257A/Q286R/M298Q-FVIIa (human)
[12] = molecular target: Q286R/M298Q-FVIIa (human)
[13] = molecular target: T128N/P129A-FVIIa (human)
[14] = molecular target: T239I/Q286R/M298Q-FVIIa (human)
[15] = molecular target: T239I/Q286R/M298Q/Q366N-FVIIa (human)
[16] = molecular target: Gla swap FIX/S222A/Q286R/M298Q/H373F-FVIIa (human)
[17] = molecular target: {Gla swap FIX/Q44S}/Q286R/M298Q-FVIIa (human)
[18] = molecular target: T128N/P129A/A175S/Q286R-FVIIa (human)
[19] = molecular target: T128N/P129A/T239V/Q286R/M298Q-FVIIa (human)
[20] = molecular target: H257A/Q286R-FVIIa (human)
[21] = molecular target: A122N/G124S/A175S/Q286R-FVIIa (human)
[22] = molecular target: {Gla swap FIX/K43I}/Q286R/M298Q/Q366N-FVIIa (human)
[23] = molecular target: K109N/A175S-FVIIa (human)
[24] = molecular target: {Gla swap FIX/K43I}/Q286R/M298Q-FVIIa (human)
[25] = molecular target: S222A/H257A/Q286R-FVIIa (human)
[26] = molecular target: T239I/Q286R/M298Q/H373F-FVIIa (human)
[27] = molecular target: T128N/P129A/Q286R/M298Q-FVIIa (human)
[28] = molecular target: GlaSwapFIX/S222A/T239I/Q286R-FVIIa (human)
[29] = molecular target: T128N/P129A/A175S/S222A-FVIIa (human)
[30] = molecular target: Gla swap FIX/S222A/Q286R/H373F-FVIIa (human)
[31] = molecular target: T128N/P129A/Q286R/M298Q/Q366N/H373F-FVIIa (human)
[32] = molecular target: S52A/S60A/V158D/E296V/M298Q-FVIIa (human)
[33] = molecular target: V158D/T239V/E296V/M298Q-FVIIa (human)
[34] = molecular target: Gla swap FIX/S222A/T239V/Q286R-FVIIa (human)
[35] = molecular target: S222A/T239I/H257A/Q286R/M298Q-FVIIa (human)
[36] = molecular target: S222A/Q286R/M298Q-FVIIa (human)
[37] = molecular target: Gla swap FIX/Q286R/M298Q-FVIIa (human)
[38] = molecular target: T128N/P129A/A175S-FVIIa (human)
[39] = molecular target: H257A/Q286R/M298Q-FVIIa (human)
[40] = molecular target: S222A/T239I-FVIIa (human)
[41] = molecular target: T239V/Q286R/M298Q/Q366N-FVIIa (human)
[42] = molecular target: S222A/Q286R/M298Q/H373F-FVIIa (human)
[43] = molecular target: S222A/T239V/H257A/Q286R/M298Q-FVIIa (human)
[44] = molecular target: Gla swap FIX/T128N/P129A/Q286R/M298Q-FVIIa (human)
[45] = molecular target: S222A/T239V-FVIIa (human)
[46] = molecular target: Gla swap FIX-FVIIa (human)
[47] = molecular target: Gla swap FIX/T128N/P129A/A175S/S222A/Q286R-FVIIa (human)
[48] = molecular target: T128N/P129A/T239I/Q286R/M298Q-FVIIa (human)
[49] = molecular target: T128N/P129A/S222A-FVIIa (human)
[50] = molecular target: Gla swap FIX/S222A/Q286R/M298Q-FVIIa (human)
[51] = molecular target: T128N/P129A/A175S/Q286R/M298Q-FVIIa (human)
[52] = molecular target: A122N/G124S/A175S/S222A-FVIIa (human)
[53] = molecular target: M298Q/H373F-FVIIa (human)
[54] = molecular target: Q286R/H373F-FVIIa (human)

Chain of antithrombin III (P01008 33-464): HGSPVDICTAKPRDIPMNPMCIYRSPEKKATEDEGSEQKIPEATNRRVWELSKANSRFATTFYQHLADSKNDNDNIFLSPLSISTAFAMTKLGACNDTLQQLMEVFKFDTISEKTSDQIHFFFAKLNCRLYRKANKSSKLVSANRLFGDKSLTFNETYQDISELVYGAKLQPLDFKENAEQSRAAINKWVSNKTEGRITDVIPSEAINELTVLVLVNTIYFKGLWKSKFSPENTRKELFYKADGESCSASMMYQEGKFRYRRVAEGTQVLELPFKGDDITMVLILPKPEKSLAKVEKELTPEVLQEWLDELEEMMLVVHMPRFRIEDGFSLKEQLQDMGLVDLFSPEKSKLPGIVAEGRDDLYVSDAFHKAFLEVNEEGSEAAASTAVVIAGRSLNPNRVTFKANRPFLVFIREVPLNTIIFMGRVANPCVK

K0.5 [1]: 254 nM | K0.5 [2]: 81.6 nM | K0.5 [3]: 1130 nM | K0.5 [4]: 336 nM | K0.5 [5]: 317 nM | K0.5 [6]: 1640 nM | K0.5 [7]: 324 nM | K0.5 [8]: 183 nM | K0.5 [9]: 287 nM | K0.5 [10]: 333 nM | K0.5 [11]: 448 nM | K0.5 [12]: 299 nM and 287 nM and 395 nM | K0.5 [13]: 465 nM | K0.5 [14]: 1610 nM | K0.5 [15]: 813 nM | K0.5 [16]: 164 nM | K0.5 [17]: 271 nM | K0.5 [18]: 9.55 µM | K0.5 [19]: 266 nM | K0.5 [20]: 2800 nM | K0.5 [21]: 6.92 µM | K0.5 [22]: 404 nM | K0.5 [23]: 2030 nM | K0.5 [24]: 244 nM and 219 nM | K0.5 [25]: 2590 nM | K0.5 [26]: 370 nM | K0.5 [27]: 284 nM | K0.5 [28]: 3.31 µM | K0.5 [29]: 1910 nM | K0.5 [30]: 587 nM | K0.5 [31]: 148 nM | K0.5 (A175S-FVIIa (human)): 1330 nM | K0.5 [32]: 78.8 nM | K0.5 [33]: 67.7 nM and 67.1 nM | K0.5 [34]: 2440 nM | K0.5 [35]: 1220 nM | K0.5 [36]: 308 nM | K0.5 [37]: 282 nM and 238 nM | K0.5 [38]: 1390 nM | K0.5 [39]: 391 nM | K0.5 [40]: 1150 nM | K0.5 [41]: 252 nM | K0.5 [42]: 163 nM | K0.5 [43]: 469 nM | K0.5 [44]: 508 nM and 325 nM | K0.5 [45]: 967 nM | K0.5 (H257S-FVIIa (human)): 723 nM | K0.5 [46]: 299 nM | K0.5 [47]: 6.49 µM | K0.5 (S222A-FVIIa (human)): 384 nM | K0.5 [48]: 917 nM | K0.5 [49]: 401 nM | K0.5 [50]: 266 nM | K0.5 [51]: 2310 nM | K0.5 [52]: 1550 nM | K0.5 [53]: 81.7 nM | K0.5 [54]: 621 nM
Substance: antithrombin III
